Measured values as given in patent publication US20250152746A1, “BASE EDITING OF ANGPTL3 AND METHODS OF USING SAME FOR TREATMENT OF DISEASE” (Verve Therapeutics, Inc., priority 2020, published 2025).
In the oligonucleotide strings, read from the 5' end, every base follows the letter of its sugar. An asterisk marks phosphorothioate; unmarked linkages are phosphodiester. Other units and linkages are bracketed, terminal groups are in braces. A string of capitals states the bases alone. m = 2'-O-methyl; r = 2'-OH (RNA)

Experiments:
PCSK9 gene [1] = assay: PCSK9 gRNA/SpCas9 editing in primary human hepatocytes (Tables 2, 4); type: cell-based; conditions: SpCas9 mRNA MS002 1:1 by weight; for Human Primary Hepatocyte Editing % 100: 100 ng/RNA/mL; for Human Primary Hepatocyte Editing % 500: 500 ng/RNA/mL; for Human Primary Hepatocyte Editing % 2500: 2500 ng/RNA/mL
Description: In set of experiments, PCSK9 gRNAs were co-transfected with an equivalent amount (1:1 ratio by weight) of in vitro transcribed commercially available SpCas9 mRNA MS002 purchased from TriLink Biotechnologies into primary human hepatocytes at 2500, 500, or 100 ng/RNA/mL and processed as described in detailed methods. Extracted genomic DNA was analyzed for gene editing at the target site with next-generation sequencing of PCR amplicons generated around the target sites. Samples were prepared using the Nextera XT DNA library preparation kit (Illumina) according to the manufacturer's protocol. Briefly, two rounds of PCR were performed first to amplify the region of interest and second to add DNA sequences required for next generation sequencing and sample identification to the initial product. The final amplicon was sequenced on the Illumina MiSeq instrument according to the manufacturer's protocol. A wide range of editing activities (Table 2) were observed. In a second set of experiments, ANGPTL3 gRNAs were co-transfected with an equivalent amount of in vitro transcribed SpCas9 mRNA (1:1 ratio by weight) into primary human hepatocytes and processed and analyzed similarly (Table 3).
PCSK9 gRNAs were co-transfected with an equivalent amount of in vitro transcribed SpCas9 mRNA MS002 (1:1 ratio by weight) into primary human hepatocytes and processed as described in detailed methods. A wide range of editing activities were observed (Table 4; ND=Not determined). The guides with the highest editing activity at five days post transfection were GA001, GA002, GA007, and GA008.
Human primary hepatocytes were transfected at 2500, 1250, 500, and 250 ng/test article/mL with SpCas9 mRNA MS002 and a gRNA targeting PCSK9 with modifications to the tracr. Genomic DNA was processed, sequenced, and analyzed as described in the detailed methods section. GA156 was transfected to serve as a positive control.
Plating, culturing, and transfection of primary hepatocytes. Primary human liver hepatocytes (PHH) and primary cynomolgus liver hepatocytes (PCH) from BioIVT were cultured per the manufacturer's protocol. Briefly, primary human hepatocytes and primary cyno hepatocytes were obtained as frozen aliquots from BioIVT. Four lots of primary human hepatocytes, each derived from a de-identified individual donor, were used for the experiments: STL (main donor) was used for all experiments, including screening experiments and off-target experiments; HLY, JLP, and TLY were used for off-target experiments. The HFG lot of primary cyno hepatocytes were used for experiments. Following the manufacturer's instructions, cells were thawed and rinsed prior to plating in 24-well plates that had been coated with bovine collagen overnight, with a density of approximate 350,000 cells/well in INVITROGRO hepatocyte medium supplemented with TORPEDO antibiotic mix (BioIVT). The cells were thawed and resuspended in hepatocyte thawing medium followed by centrifugation at 100 g for 10 min at 4° C. The supernatant was discarded, and the pelleted cells resuspended in hepatocyte plating medium. Each vial contains approximately 5 million cells that were used for plating one 24-well plate. Plated cells were allowed to settle and adhere for 4-6 h in a tissue culture incubator at 37° C. under 5% CO2 atmosphere. After incubation, cells were checked for monolayer formation. The incubating media were then replaced with fresh hepatocyte maintenance media (complete INVITROGRO medium obtained from BioIVT, the cell line provider). The cells thus became ready for transfection. Each of the gRNAs were co-transfected with an equivalent amount of in vitro transcribed ABE8.8 mRNA (1:1 ratio by molecular weight) into primary human hepatocytes via MessengerMax reagent (Lipofectamine), using various dilutions to assess for editing activity at different concentrations of test article. MessengerMAX from Thermo Fisher is used for transfection. […]

PCSK9 gene [2] = assay: PCSK9 gRNA/SpCas9 editing in primary cynomolgus hepatocytes (Tables 2, 22); type: cell-based, cynomolgus monkey; conditions: SpCas9 mRNA MS002 1:1 by weight; for Cyno Primary Hepatocyte Editing % 100: 100 ng/RNA/mL; for Cyno Primary Hepatocyte Editing % 500: 500 ng/RNA/mL; for Cyno Primary Hepatocyte Editing % 2500: 2500 ng/RNA/mL

| Molecule | Human Primary Hepatocyte Editing % 100 (PCSK9 gene [1]) [%] | Human Primary Hepatocyte Editing % 500 (PCSK9 gene [1]) [%] | Human Primary Hepatocyte Editing % 2500 (PCSK9 gene [1]) [%] | Cyno Primary Hepatocyte Editing % 100 (PCSK9 gene [2]) [%] | Cyno Primary Hepatocyte Editing % 500 (PCSK9 gene [2]) [%] | Cyno Primary Hepatocyte Editing % 2500 (PCSK9 gene [2]) [%] |
| --- | --- | --- | --- | --- | --- | --- |
| GA201: PCSK9 gRNA; protospacer CAGCATACAGAGTGACCACC (SEQ ID NO: 195) (nucleic acid, sugars from the 5' end m3 r94 m3, linkages s3 o93 s3 (s phosphorothioate, o phosphodiester), T or U not given here) guide: CAGCAUACAGAGUGACCACCGUUUUAGAGCUAGAAAUAGCAAGUUAAAAUAAGGCUAGUCCGUUAUCAACUUGAAAAAGUGGCACCGAGUCGGUGCUUUU | 3.29 | 12.92 | 31.51 | 4.33 | 14.37 | 44.01 |
| GA194: PCSK9 gRNA; protospacer GTCGACATGGGGCAACTTCA (SEQ ID NO: 188) (nucleic acid, sugars from the 5' end m3 r94 m3, linkages s3 o93 s3 (s phosphorothioate, o phosphodiester), T or U not given here) guide: GUCGACAUGGGGCAACUUCAGUUUUAGAGCUAGAAAUAGCAAGUUAAAAUAAGGCUAGUCCGUUAUCAACUUGAAAAAGUGGCACCGAGUCGGUGCUUUU | 2.32 | 12.39 | 32.97 | 2.38 | 9.49 | 30.91 |
| GA198: PCSK9 gRNA; protospacer CCACCGGGAAATCGAGGGCA (SEQ ID NO: 192) (nucleic acid, sugars from the 5' end m3 r94 m3, linkages s3 o93 s3 (s phosphorothioate, o phosphodiester), T or U not given here) guide: CCACCGGGAAAUCGAGGGCAGUUUUAGAGCUAGAAAUAGCAAGUUAAAAUAAGGCUAGUCCGUUAUCAACUUGAAAAAGUGGCACCGAGUCGGUGCUUUU | 0.04 | 10.58 | 30.93 | 3.53 | 16.15 | 49 |
| GA192: PCSK9 gRNA; protospacer CCATGTCGACTACATCGAGG (SEQ ID NO: 186) (nucleic acid) guide: mC*mC*mA*rUrGrUrCrGrArCrUrArCrArUrCrGrArGrGrGrUrUrUrUrArGrArGrCrUrArGrArArArUrArGrCrArArGrUrUrArArArArUrArArGrGrCrUrArGrUrCrCrGrUrUrArUrCrArArCrUrUrGrArArArArArGrUrGrGrCrArCrCrGrArGrUrCrGrGrUrGrCrU*mU*mU*mU | 1.14 | 6.02 | 16.7 | 0.60 | 1.50 | 10.26 |
| GA197: PCSK9 gRNA; protospacer AGTGACCACCGGGAAATCGA (SEQ ID NO: 191) (nucleic acid, sugars from the 5' end m3 r94 m3, linkages s3 o93 s3 (s phosphorothioate, o phosphodiester), T or U not given here) guide: AGUGACCACCGGGAAAUCGAGUUUUAGAGCUAGAAAUAGCAAGUUAAAAUAAGGCUAGUCCGUUAUCAACUUGAAAAAGUGGCACCGAGUCGGUGCUUUU | 1.22 | 3.29 | 15.03 | 0.9 | 3.89 | 18.21 |
| GA200: PCSK9 gRNA; protospacer CTAGGAGATACACCTCCACC (SEQ ID NO: 194) (nucleic acid, sugars from the 5' end m3 r94 m3, linkages s3 o93 s3 (s phosphorothioate, o phosphodiester), T or U not given here) guide: CUAGGAGAUACACCUCCACCGUUUUAGAGCUAGAAAUAGCAAGUUAAAAUAAGGCUAGUCCGUUAUCAACUUGAAAAAGUGGCACCGAGUCGGUGCUUUU | 3.8 | 8.68 | 5.31 | 5.15 | 20.51 | 54.36 |
| GA193: PCSK9 gRNA; protospacer GGGGCTGGTATTCATCCGCC (SEQ ID NO: 187) (nucleic acid, sugars from the 5' end m3 r94 m3, linkages s3 o93 s3 (s phosphorothioate, o phosphodiester), T or U not given here) guide: GGGGCUGGUAUUCAUCCGCCGUUUUAGAGCUAGAAAUAGCAAGUUAAAAUAAGGCUAGUCCGUUAUCAACUUGAAAAAGUGGCACCGAGUCGGUGCUUUU | 3.92 | 15.68 | 35.77 | 8.70 | 32.02 | 52.89 |
| GA196: PCSK9 gRNA; protospacer GAGTGACCACCGGGAAATCG (SEQ ID NO: 190) (nucleic acid, sugars from the 5' end m3 r94 m3, linkages s3 o93 s3 (s phosphorothioate, o phosphodiester), T or U not given here) guide: GAGUGACCACCGGGAAAUCGGUUUUAGAGCUAGAAAUAGCAAGUUAAAAUAAGGCUAGUCCGUUAUCAACUUGAAAAAGUGGCACCGAGUCGGUGCUUUU | 0.75 | 2.9 | 17.19 | 1.09 | 3.4 | 27.79 |
| GA199: PCSK9 gRNA; protospacer GAAGCGGGTCCCGTCCTCCT (SEQ ID NO: 193) (nucleic acid, sugars from the 5' end m3 r94 m3, linkages s3 o93 s3 (s phosphorothioate, o phosphodiester), T or U not given here) guide: GAAGCGGGUCCCGUCCUCCUGUUUUAGAGCUAGAAAUAGCAAGUUAAAAUAAGGCUAGUCCGUUAUCAACUUGAAAAAGUGGCACCGAGUCGGUGCUUUU | 1.17 | 6.89 | 29.95 | 3.07 | 15.11 | 45.32 |
| GA157: PCSK9 gRNA; protospacer GCCGTCCTCCTCGGAACGCA (SEQ ID NO: 151) (nucleic acid) guide: mG*mC*mC*rGrUrCrCrUrCrCrUrCrGrGrArArCrGrCrArGrUrUrUrUrArGrArGrCrUrArGrArArArUrArGrCrArArGrUrUrArArArArUrArArGrGrCrUrArGrUrCrCrGrUrUrArUrCrArArCrUrUrGrArArArArArGrUrGrGrCrArCrCrGrArGrUrCrGrGrUrGrCrU*mU*mU*mU | 0.62 | 2.82 | 10.03 | 0.78 | 2.93 | 13.78 |
| GA195: PCSK9 gRNA; protospacer ACCACCGGGAAATCGAGGGC (SEQ ID NO: 189) (nucleic acid, sugars from the 5' end m3 r94 m3, linkages s3 o93 s3 (s phosphorothioate, o phosphodiester), T or U not given here) guide: ACCACCGGGAAAUCGAGGGCGUUUUAGAGCUAGAAAUAGCAAGUUAAAAUAAGGCUAGUCCGUUAUCAACUUGAAAAAGUGGCACCGAGUCGGUGCUUUU | 3.58 | 13.3 | 12.57 | 0.69 | 4.77 | 18.78 |
